Positions of bridges follow the written chain, without caps; N, C: chain ends. Non-standard residues stand in square brackets, D forms with d. No end group written: not given here. *: point of attachment. Acetyl(2-(4-imidazolyl)) = O=C(Cc1c[nH]cn1)*; Aib = CC(C)(N)C(=O)O
Assays:
Assay in all cases: cell-based or functional assay
[1] = target: human GLP-1 receptor (human, UniProt P43220 24-463)
[2] = target: T1, human GIP receptor (human, UniProt P48546 22-466)
T1 sequence (looked up): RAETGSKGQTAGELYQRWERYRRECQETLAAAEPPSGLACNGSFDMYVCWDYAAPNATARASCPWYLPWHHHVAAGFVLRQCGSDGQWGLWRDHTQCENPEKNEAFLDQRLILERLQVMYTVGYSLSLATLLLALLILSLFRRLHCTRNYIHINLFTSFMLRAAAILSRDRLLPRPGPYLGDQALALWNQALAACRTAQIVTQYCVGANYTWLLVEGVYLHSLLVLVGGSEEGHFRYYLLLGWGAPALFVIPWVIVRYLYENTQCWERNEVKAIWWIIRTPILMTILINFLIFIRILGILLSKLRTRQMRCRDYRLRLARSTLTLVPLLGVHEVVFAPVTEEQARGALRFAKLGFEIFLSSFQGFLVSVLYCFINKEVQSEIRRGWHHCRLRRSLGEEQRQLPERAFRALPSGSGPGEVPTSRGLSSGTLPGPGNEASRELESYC

[3] = target: human GCG receptor (human, UniProt P47871 26-477)
Sequence of human GCG receptor (P47871 26-477): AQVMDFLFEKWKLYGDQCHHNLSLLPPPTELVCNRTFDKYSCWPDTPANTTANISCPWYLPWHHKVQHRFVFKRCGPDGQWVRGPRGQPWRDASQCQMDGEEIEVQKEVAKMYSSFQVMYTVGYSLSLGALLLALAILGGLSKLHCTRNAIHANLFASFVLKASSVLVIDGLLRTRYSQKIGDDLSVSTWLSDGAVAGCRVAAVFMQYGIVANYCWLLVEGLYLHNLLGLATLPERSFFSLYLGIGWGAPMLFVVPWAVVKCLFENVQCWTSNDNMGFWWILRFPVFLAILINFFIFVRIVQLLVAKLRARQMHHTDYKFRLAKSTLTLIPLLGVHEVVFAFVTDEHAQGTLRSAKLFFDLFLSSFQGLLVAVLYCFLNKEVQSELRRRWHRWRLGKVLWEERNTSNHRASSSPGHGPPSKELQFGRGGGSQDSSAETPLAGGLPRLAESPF

Binder: [Acetyl(2-(4-imidazolyl))][Aib]QGTFTSDYSIAMDEIHQKDFVNWLLAQC (bridge 16-20) [triple agonist of SEQ ID NO: 85]
- In vitro Activity Compared to Native Peptide (%) vs. GLP-1 [1]: 4.3%
- In vitro Activity Compared to Native Peptide (%) vs. GIP [2]: 0.3%
- In vitro Activity Compared to Native Peptide (%) vs. Glucagon [3]: < 0.1%

Binder: [Acetyl(2-(4-imidazolyl))][Aib]QGTFTSDYSKYLDEKRQKEFVNWLLAQKC (bridge 16-20) [triple agonist of SEQ ID NO: 93]
- In vitro Activity Compared to Native Peptide (%) vs. GLP-1 [1]: 5.7%
- In vitro Activity Compared to Native Peptide (%) vs. GIP [2]: 0.7%
- In vitro Activity Compared to Native Peptide (%) vs. Glucagon [3]: 0.3%

Binder: [Acetyl(2-(4-imidazolyl))][Aib]EGTFTSDYSIAMDEIHQKDFVDWLLAEC (bridge 16-20) [triple agonist of SEQ ID NO: 84]
- In vitro Activity Compared to Native Peptide (%) vs. GLP-1 [1]: 4.2%
- In vitro Activity Compared to Native Peptide (%) vs. GIP [2]: < 0.1%
- In vitro Activity Compared to Native Peptide (%) vs. Glucagon [3]: < 0.1%

Binder: [Acetyl(2-(4-imidazolyl))][Aib]EGTFTSDYSIAMDEIHQKDFVDWLLAEKC (bridge 16-20) [triple agonist of SEQ ID NO: 91]
- In vitro Activity Compared to Native Peptide (%) vs. GLP-1 [1]: 31.9%
- In vitro Activity Compared to Native Peptide (%) vs. GIP [2]: 0.3%
- In vitro Activity Compared to Native Peptide (%) vs. Glucagon [3]: 16.8%

Binder: Y[Aib]QGTFTSDYSKYLDEKRAKEFVQWLLDCHPSSGQPPPS (bridge 16-20) [triple agonist of SEQ ID NO: 97]
- In vitro Activity Compared to Native Peptide (%) vs. GLP-1 [1]: 10.5%
- In vitro Activity Compared to Native Peptide (%) vs. GIP [2]: 2.6%
- In vitro Activity Compared to Native Peptide (%) vs. Glucagon [3]: 62.8%

Binder: [Acetyl(2-(4-imidazolyl))][Aib]QGTFTSDYSKYLDEKRQKEFVNWLLAQC (bridge 16-20) [triple agonist of SEQ ID NO: 86]
- In vitro Activity Compared to Native Peptide (%) vs. GLP-1 [1]: 28.4%
- In vitro Activity Compared to Native Peptide (%) vs. GIP [2]: 0.2%
- In vitro Activity Compared to Native Peptide (%) vs. Glucagon [3]: 0.4%

Binder: [Acetyl(2-(4-imidazolyl))][Aib]QGTFTSDYSKYLDEKRQKEFVQWLLNTC (bridge 16-20) [triple agonist of SEQ ID NO: 81]
- In vitro Activity Compared to Native Peptide (%) vs. GLP-1 [1]: 7.8%
- In vitro Activity Compared to Native Peptide (%) vs. GIP [2]: < 0.1%
- In vitro Activity Compared to Native Peptide (%) vs. Glucagon [3]: 0.3%

Binder: Y[Aib]QGTFTSDYSKYLDEKRAKDFVQWLLDHHPSSGQPPPSC (bridge 16-20) [triple agonist of SEQ ID NO: 76]
- In vitro Activity Compared to Native Peptide (%) vs. GLP-1 [1]: 10.3%
- In vitro Activity Compared to Native Peptide (%) vs. GIP [2]: 11.7%
- In vitro Activity Compared to Native Peptide (%) vs. Glucagon [3]: 47.6%

Binder: Y[Aib]QGTFTSDYSKYLDEKRAKEFVQWLLDHCPSSGQPPPS (bridge 16-20) [triple agonist of SEQ ID NO: 96]
- In vitro Activity Compared to Native Peptide (%) vs. GLP-1 [1]: 34.4%
- In vitro Activity Compared to Native Peptide (%) vs. GIP [2]: 5.2%
- In vitro Activity Compared to Native Peptide (%) vs. Glucagon [3]: 195%

Binder: [Acetyl(2-(4-imidazolyl))][Aib]QGTFTSDYSKYLDEKRQKEFVQWLLNTKC (bridge 16-20) [triple agonist of SEQ ID NO: 88]
- In vitro Activity Compared to Native Peptide (%) vs. GLP-1 [1]: 9.6%
- In vitro Activity Compared to Native Peptide (%) vs. GIP [2]: < 0.1%
- In vitro Activity Compared to Native Peptide (%) vs. Glucagon [3]: 0.3%

Binder: H[Aib]EGTFTSDYSIAMDEIHQKDFVNWLLAQKC (bridge 16-20) [triple agonist of SEQ ID NO: 79]
- In vitro Activity Compared to Native Peptide (%) vs. GLP-1 [1]: 41.5%
- In vitro Activity Compared to Native Peptide (%) vs. GIP [2]: 1.4%
- In vitro Activity Compared to Native Peptide (%) vs. Glucagon [3]: 4.9%

Binder: [Acetyl(2-(4-imidazolyl))][Aib]QGTFTSDYSKYLDEKRQKEFVQWLLDTKC (bridge 16-20) [triple agonist of SEQ ID NO: 89]
- In vitro Activity Compared to Native Peptide (%) vs. GLP-1 [1]: 7.1%
- In vitro Activity Compared to Native Peptide (%) vs. GIP [2]: < 0.1%
- In vitro Activity Compared to Native Peptide (%) vs. Glucagon [3]: 0.7%

Binder: [Acetyl(2-(4-imidazolyl))][Aib]EGTFTSDYSIAMDEIHQKDFVNWLLAQC (bridge 16-20) [triple agonist of SEQ ID NO: 83]
- In vitro Activity Compared to Native Peptide (%) vs. GLP-1 [1]: 47.3%
- In vitro Activity Compared to Native Peptide (%) vs. GIP [2]: 0.4%
- In vitro Activity Compared to Native Peptide (%) vs. Glucagon [3]: 1.3%

Binder: [Acetyl(2-(4-imidazolyl))][Aib]EGTFTSDYSIAMDEIHQKDFVNWLLAQKC (bridge 16-20) [triple agonist of SEQ ID NO: 90]
- In vitro Activity Compared to Native Peptide (%) vs. GLP-1 [1]: 7.4%
- In vitro Activity Compared to Native Peptide (%) vs. GIP [2]: < 0.1%
- In vitro Activity Compared to Native Peptide (%) vs. Glucagon [3]: < 0.1%

Binder: [Acetyl(2-(4-imidazolyl))][Aib]QGTFTSDYSIAMDEIHQKDFVNWLLAQKC (bridge 16-20) [triple agonist of SEQ ID NO: 92]
- In vitro Activity Compared to Native Peptide (%) vs. GLP-1 [1]: 0.8%
- In vitro Activity Compared to Native Peptide (%) vs. GIP [2]: 0.4%
- In vitro Activity Compared to Native Peptide (%) vs. Glucagon [3]: < 0.1%

Binder: Y[Aib]QGTFTSDYSKYLDEKRAKEFVQWLLCHHPSSGQPPPS (bridge 16-20) [triple agonist of SEQ ID NO: 95]
- In vitro Activity Compared to Native Peptide (%) vs. GLP-1 [1]: 2.1%
- In vitro Activity Compared to Native Peptide (%) vs. GIP [2]: < 0.1%
- In vitro Activity Compared to Native Peptide (%) vs. Glucagon [3]: 0.4%

Binder: H[Aib]QGTFTSDVSKYLDGQAAQEFVAWLLAGGGPSSGAPPPSC [triple agonist of SEQ ID NO: 10]
- In vitro Activity Compared to Native Peptide (%) vs. GLP-1 [1]: 46%
- In vitro Activity Compared to Native Peptide (%) vs. GIP [2]: < 0.1%
- In vitro Activity Compared to Native Peptide (%) vs. Glucagon [3]: < 0.1%

Binder: Y[Aib]QGTFTSDYSKYLDEKAAKDFVQWLLDHHPSSGQPPPSC (bridge 16-20) [triple agonist of SEQ ID NO: 77]
- In vitro Activity Compared to Native Peptide (%) vs. GLP-1 [1]: 38.7%
- In vitro Activity Compared to Native Peptide (%) vs. GIP [2]: 35.5%
- In vitro Activity Compared to Native Peptide (%) vs. Glucagon [3]: 12.2%

Binder: Y[Aib]QGTFTSDYSKYLDEKAAKEFVQWLLDHHPSSGQPPPSC (bridge 16-20) [triple agonist of SEQ ID NO: 75]
- In vitro Activity Compared to Native Peptide (%) vs. GLP-1 [1]: 35.1%
- In vitro Activity Compared to Native Peptide (%) vs. GIP [2]: 18%
- In vitro Activity Compared to Native Peptide (%) vs. Glucagon [3]: 8.5%

Binder: [Acetyl(2-(4-imidazolyl))][Aib]QGTFTSDYSKYLDEKRQKEFVQWLLDTC (bridge 16-20) [triple agonist of SEQ ID NO: 82]
- In vitro Activity Compared to Native Peptide (%) vs. GLP-1 [1]: 9.5%
- In vitro Activity Compared to Native Peptide (%) vs. GIP [2]: < 0.1%
- In vitro Activity Compared to Native Peptide (%) vs. Glucagon [3]: 1.1%

Binder: H[Aib]QGTFTSDYSKYLDEKRQKEFVQWLLDTKC (bridge 16-20) [triple agonist of SEQ ID NO: 78]
- In vitro Activity Compared to Native Peptide (%) vs. GLP-1 [1]: 51%
- In vitro Activity Compared to Native Peptide (%) vs. GIP [2]: 0.12%
- In vitro Activity Compared to Native Peptide (%) vs. Glucagon [3]: 14%

Binder: [Acetyl(2-(4-imidazolyl))][Aib]QGTFTSDYSIAMDEIHQKDFVNWLLNTC (bridge 16-20) [triple agonist of SEQ ID NO: 87]
- In vitro Activity Compared to Native Peptide (%) vs. GLP-1 [1]: 0.9%
- In vitro Activity Compared to Native Peptide (%) vs. GIP [2]: < 0.1%
- In vitro Activity Compared to Native Peptide (%) vs. Glucagon [3]: < 0.1%

Binder: H[Aib]QGTFTSDVSKYLDGQAAQEFVAWLLAGC [triple agonist of SEQ ID NO: 9]
- In vitro Activity Compared to Native Peptide (%) vs. GLP-1 [1]: 32.1%
- In vitro Activity Compared to Native Peptide (%) vs. GIP [2]: < 0.1%
- In vitro Activity Compared to Native Peptide (%) vs. Glucagon [3]: 0.13%

Binder: H[Aib]EGTFTSDYSIAMDEIHQKDFVDWLLAEKC (bridge 16-20) [triple agonist of SEQ ID NO: 80]
- In vitro Activity Compared to Native Peptide (%) vs. GLP-1 [1]: 8.1%
- In vitro Activity Compared to Native Peptide (%) vs. GIP [2]: 0.1%
- In vitro Activity Compared to Native Peptide (%) vs. Glucagon [3]: 0%

Binder: [Acetyl(2-(4-imidazolyl))][Aib]QGTFTSDYSIAMDEIHQKDFVNWLLNTKC (bridge 16-20) [triple agonist of SEQ ID NO: 94]
- In vitro Activity Compared to Native Peptide (%) vs. GLP-1 [1]: 0.5%
- In vitro Activity Compared to Native Peptide (%) vs. GIP [2]: < 0.1%
- In vitro Activity Compared to Native Peptide (%) vs. Glucagon [3]: < 0.1%
